Test results as given in patent publication US20240207401A1 (IMPERIAL COLLEGE INNOVATIONS, published 2024).
Like-named read-outs stand apart in the source and are kept apart here.

B1: IC001 (antibody, V domains shown)
VH: QVQLVQSGAEVKKPGASVKVSCKASGYTFTSYAMHWVRQAPGQRLEWMGWINAGNGNTKYSQKFQGRVTITRDTSASTAYMELSSLRSEDTAVYYCARDRHMVVPAAVFDYWGQGTLVTVSS
VL: AIQLTQSPSTLSASVGDRVTITCRASQSISSWLAWYQQKPGKAPKLLIYKASSLESGVPSRFSGSGSGTEFTLTISSLQPDDFATYYCQQYGTFGQGTKWISN
notes: also called CoV-bnMAB; mAb IC001
B2: IC008 (antibody, V domains shown)
VH: LVQLQESGPRLVTPSETLSLTCTVSGGSISSSRHYWGWIRQPPGMGLEWIGSIDYSGGTYCNPSLKSRVTISEDTSKNQFSLKVNSVTAADTAVYYCARQVGHSGRGHNWFDPWGQGTLVTVSS
VL: DIQMTQSPSSLSASVGDRVTITCRASQSIYNYLNWYQQKPGKAPKFLIYAASTLQTGVPSRFSGSGSGTDFTLTISSLQPEDFATYYCQQSYSSSVTFGQGTRLEIK
notes: also called CoV-bnMAB; mAb IC008

Experiments:
[1] = biological target: T1, SARS-CoV spike trimer (S ectodomain protein) (SARS-CoV, UniProt P59594 14-1195); assay: SARS-CoV spike
T1 construct: also called SARS-CoV S ectodomain; SARS-CoV spike protein

[2] = biological target: T2, MERS-CoV spike protein, full length on virus or transfected cells (MERS-CoV, UniProt K9N5Q8 18-1353); assay: cell-based or functional assay
[3] = biological target: T3, SARS-CoV spike protein, full length on virus (SARS-CoV, UniProt P59594 14-1255); assay: cell-based or functional assay
[4] = biological target: T4, SARS-CoV-2 spike trimer (COVID19 S ectodomain, residues 1-1208) (SARS-CoV-2, UniProt P0DTC2 14-1208)
[5] = biological target: T4, SARS-CoV-2 spike trimer (COVID19 S …); remark: listed apart in the source
[6] = biological target: T1, SARS-CoV spike trimer (S ectodomain …)
[7] = biological target: T5, MERS-CoV spike trimer (S ectodomain protein) (MERS-CoV, UniProt K9N5Q8 18-1296); assay: MERS-CoV spike
T5 construct: also called MERS-CoV S ectodomain; MERS-CoV spike protein

[8] = biological target: T4, SARS-CoV-2 spike trimer (COVID19 S …); remark: listed apart in the source
[9] = biological target: T5, MERS-CoV spike trimer (S ectodomain …)
[10] = biological target: T1, SARS-CoV spike trimer (S ectodomain …); remark: listed apart in the source
[11] = biological target: T2, MERS-CoV spike protein, full length on …; assay: cell-based or functional assay; remark: listed apart in the source
[12] = biological target: T3, SARS-CoV spike protein, full length on …; assay: cell-based or functional assay; remark: listed apart in the source
[13] = biological target: SARS-CoV-2 S protein, membrane form (SARS-CoV-2, UniProt P0DTC2 14-1273); assay: cell-based or functional assay
[14] = biological target: T4, SARS-CoV-2 spike trimer (COVID19 S …); assay: ELISA on spike trimer, IgG titrated

| Binder | EC50 [1] | neutralization of MERS-CoV pseudovirus (IC50) [2] | neutralization of SARS-CoV pseudovirus (IC50) [3] | EC50 [4] | fold weaker binding affinity than ACE2 [4] | EC50 [5] | EC50 [6] | EC50 [7] | Kd [8] | Kd [9] | Kd [10] | IC50, neutralisation [11] | IC50, neutralisation [12] | IC50, neutralisation [13] | EC50 (read off the curve) [14] |
| --- | --- | --- | --- | --- | --- | --- | --- | --- | --- | --- | --- | --- | --- | --- | --- |
| B1 | 520 nM | 2.9 µg/mL | 1.8 µg/mL | 586 nM | ~7 fold | 520 nM | 586 nM | 857 nM | 700 nM | 1200 nM | 700 nM | 3 µg/mL | 2.8 µg/mL | 2.2 µg/mL |  |
| B2 |  |  |  |  |  |  |  |  |  |  |  | 2.9 µg/mL | 3 µg/mL | 4.5 µg/mL | ~2 nM |
